The target in test [1] is T1, human high-affinity IL-2 receptor IL-2Rαβγ on cells (human, UniProt P01589 22-272; P14784 27-551; P31785 23-369).
T1 sequence (looked up) 1: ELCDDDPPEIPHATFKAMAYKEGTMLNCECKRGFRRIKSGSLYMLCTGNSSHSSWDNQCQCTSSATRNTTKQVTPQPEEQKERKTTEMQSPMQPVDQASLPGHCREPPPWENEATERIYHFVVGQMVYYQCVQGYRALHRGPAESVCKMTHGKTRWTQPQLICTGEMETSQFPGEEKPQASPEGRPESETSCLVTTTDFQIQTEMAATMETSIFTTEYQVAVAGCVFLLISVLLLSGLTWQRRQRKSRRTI
T1 sequence (looked up) 2: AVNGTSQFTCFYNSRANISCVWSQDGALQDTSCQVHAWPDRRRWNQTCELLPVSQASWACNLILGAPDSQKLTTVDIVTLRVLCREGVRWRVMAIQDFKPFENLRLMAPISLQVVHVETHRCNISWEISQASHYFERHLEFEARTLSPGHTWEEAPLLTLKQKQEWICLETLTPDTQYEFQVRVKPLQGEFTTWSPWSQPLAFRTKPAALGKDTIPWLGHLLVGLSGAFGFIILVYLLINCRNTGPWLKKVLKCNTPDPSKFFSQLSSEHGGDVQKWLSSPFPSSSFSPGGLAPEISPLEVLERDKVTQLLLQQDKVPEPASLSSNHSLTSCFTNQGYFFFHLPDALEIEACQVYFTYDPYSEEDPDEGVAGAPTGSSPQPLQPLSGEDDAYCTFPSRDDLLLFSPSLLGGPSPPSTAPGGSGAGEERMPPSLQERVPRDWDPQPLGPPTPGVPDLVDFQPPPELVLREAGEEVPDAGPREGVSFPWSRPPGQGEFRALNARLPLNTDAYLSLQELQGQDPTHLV
T1 sequence (looked up) 3: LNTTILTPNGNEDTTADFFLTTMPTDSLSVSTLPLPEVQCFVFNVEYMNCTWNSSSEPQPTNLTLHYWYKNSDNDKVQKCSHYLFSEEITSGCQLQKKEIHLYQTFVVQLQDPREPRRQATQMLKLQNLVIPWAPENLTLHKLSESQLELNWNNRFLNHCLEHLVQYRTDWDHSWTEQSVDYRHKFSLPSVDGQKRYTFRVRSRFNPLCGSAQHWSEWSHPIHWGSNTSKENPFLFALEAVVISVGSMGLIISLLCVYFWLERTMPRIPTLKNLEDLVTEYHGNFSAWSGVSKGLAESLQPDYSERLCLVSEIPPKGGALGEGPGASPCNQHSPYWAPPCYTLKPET
The test can be described thus: cell-based or functional assay.

The target of test [2] is T2, Human IL-2RA (IL-2Rα/CD25) protein (human, UniProt P01589 22-217, limits assumed).
T2 construct: Receptor protein used as SPR ligand
T2 sequence (looked up): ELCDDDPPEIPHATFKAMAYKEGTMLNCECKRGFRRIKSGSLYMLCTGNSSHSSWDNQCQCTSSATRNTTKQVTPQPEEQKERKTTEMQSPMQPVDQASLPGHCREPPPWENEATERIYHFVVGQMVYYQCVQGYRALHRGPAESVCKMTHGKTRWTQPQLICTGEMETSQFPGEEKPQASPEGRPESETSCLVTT
The test can be described thus: SPR (Biacore, receptor immobilised on CM5 chip, IL-2 as analyte). On the procedure: (§1) The human IL-2 receptors used in this study included IL-2Rα/CD25, IL-2Rβ/CD122, common γ receptor/CD132, IL-2Rβ&IL-2Rγ heterodimer protein, and IL-2Rβ&IL-2Rα&IL-2Rγ protein. The IL-2 receptor proteins were immobilized on a Biacore™ sensor chip CM5 according to manufacturer's protocol. […] The resulting sensorgrams were analyzed with the native instrument software to calculate the binding affinities.
On the technique in general: SPR reads the build-up and loss of mass on a sensor chip optically.

In test [3] the target is T3, Human IL-2RB (IL-2Rβ/CD122) protein (human, UniProt P14784 27-239).
T3 construct: Receptor protein used as SPR ligand
T3 sequence (looked up): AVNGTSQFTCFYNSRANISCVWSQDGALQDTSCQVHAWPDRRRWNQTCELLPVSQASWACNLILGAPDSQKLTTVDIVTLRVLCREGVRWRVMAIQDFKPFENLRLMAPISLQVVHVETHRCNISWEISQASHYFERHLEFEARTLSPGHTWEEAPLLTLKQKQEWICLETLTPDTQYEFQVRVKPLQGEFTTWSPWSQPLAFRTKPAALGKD
The test is described as above. On the procedure: as §1

Test [4] deals with T4, Human IL-2RG (common γ receptor/CD132) protein (human, UniProt P31785 23-262, limits assumed).
T4 construct: Receptor protein used as SPR ligand
T4 sequence (looked up): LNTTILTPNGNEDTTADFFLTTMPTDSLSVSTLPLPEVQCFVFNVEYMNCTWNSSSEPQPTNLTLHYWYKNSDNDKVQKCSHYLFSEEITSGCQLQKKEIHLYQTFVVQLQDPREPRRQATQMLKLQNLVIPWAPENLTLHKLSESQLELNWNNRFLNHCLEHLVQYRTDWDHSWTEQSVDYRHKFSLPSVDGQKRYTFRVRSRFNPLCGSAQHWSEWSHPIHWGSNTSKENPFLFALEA
Described as above. On the procedure: as §1

Test [5] concerns the target T5, Human IL-2Rβ&IL-2Rγ heterodimer protein (human, UniProt P14784 27-239; P31785 23-262, limits assumed).
T5 construct: Heterodimer protein used as SPR ligand; also called IL-2Rβγ; Human IL-2RB&G
T5 sequence (looked up) 1: T3 sequence (looked up)
T5 sequence (looked up) 2: T4 sequence (looked up)
The test can be described thus: SPR (Biacore, receptor on CM5 chip, IL-2 as analyte), 1:1 binding. On the procedure: as §1

Test [6] concerns the target T6, Human IL-2Rβ&IL-2Rα&IL-2Rγ protein (human, UniProt P14784 27-239; P01589 22-217; P31785 23-262, limits assumed).
T6 construct: Trimeric receptor protein used as SPR ligand; also called IL-2Rαβγ; Human IL-2RB&IL-2RA&IL-2RG
T6 sequence (looked up) 1: T3 sequence (looked up)
T6 sequence (looked up) 2: T2 sequence (looked up)
T6 sequence (looked up) 3: T4 sequence (looked up)
The description is as above. On the procedure:
as §1

B1: CP-trIL-2 012 (ligand)
chain: PTSSSTKKTQLQLEHLLLDLQMILNGINNYKNPLRPRDLISNINVIVLELKGSETTELKHLQSLEEELKDLEEVLNLAQSKNFHTIVEFLNRWITFSQSIISTLT
notes: H1-H3-H2-H4; loops 1 and 2 removed; de-Ala1, C58S, C125S, P65D
As to B1, the “EC50 of STAT5 activation, human Tregs (flow cytometry)” value in test [1] came out at 7.91 nM. Besides, the binding result in test [2] is “no binding (tested: 0.977-250 nM)”; in test [3], “no binding (tested: 7.813-250 nM)”; in test [4], “no binding (tested: 0.977-500 nM)”. The figures for the Kd in test [5] and in test [6] were 0.467 nM and 0.575 nM, respectively. Further, the koff came out at 0.00106 s⁻¹ in test [5] and 0.000732 s⁻¹ in test [6]. Besides, the kon in test [5] stood at 2.28e+06 M⁻¹ s⁻¹; in test [6], 1.27e+06 M⁻¹ s⁻¹.

Usually Kd stands for the equilibrium constant for the complex coming apart. Broadly, the koff is the rate constant with which the complex falls apart. A higher koff goes with a short-lived complex. By kon is commonly meant the rate constant with which the complex forms. Low values mean slower complex formation, high ones faster complex formation.
